These results are taken from patent publication US20260152730A1.

The term IC50 denotes the concentration at which inhibition is half-maximal. Low values mean greater potency, high ones weaker potency.

Assay [1] concerns the target insulin receptor isoform-A (IR-A). Briefly: competitive ELISA on IR-A; cold ligand 1-500 nM against 0.8 nM biotinylated insulin. In general terms: In an ELISA, binding on a coated surface is turned into a signal by an enzyme label.
Assay [2] concerns the target domain 11 of the CI-M6P/IGF2R. Briefly: competitive ELISA on domain 11 of CI-M6P/IGF2R; cold ligand 1-500 nM against 8 nM biotinylated IGF2.

As to “IGF2 peptide carrying a mutation of AA 1-6 (Δ1-6.IGF2 peptide) (from UniProt P01344) (ligand)”, the IC50 is 1.61 nM in assay [1] and 5.01 nM in assay [2].

In assay [1], “IDS.IGF2 (construct 2): IDS tagged C-terminally with aa 1, 8-67 of the mature human IGF2 (from UniProt P22304)” showed an IC50 of 251 nM and a fold lower affinity than Δ1-6.IGF2 peptide of 150 fold. Further, in assay [2], the half-inhibitory concentration (IC50) stood at 61.7 nM and the times increased IC50 against Δ1-6.IGF2 peptide came to 12.3 times.
